According to patent publication US20100184663A1 (UNIVERSITY OF UTAH RESEARCH FOUNDATION, published 2010):
Where two headings read alike, the source gives them in different places. Bridge positions count the residues as written; N and C are the ends. Square brackets hold non-standard residues; d marks the D form. Ends that are not written are not given here. I, II: the chains in the order shown.

How the values were obtained:
Experiment in all cases: cell-based or functional assay
HIV-1 gp41 (HXB2 strain) [1] = target: T1, HIV-1 gp41 (HXB2 strain) (HIV-1 HXB2, UniProt P04578 512-856)
HIV-1 gp41 (JRFL strain) = HIV-1 gp41 (JRFL strain) (HIV-1 JRFL)
HIV-1 gp41 (HXB2 strain) [2] = target: T1, HIV-1 gp41 (HXB2 strain); remark: listed apart in the source
HIV-1 gp41 (HXB2 strain) [3] = target: T1, HIV-1 gp41 (HXB2 strain); remark: listed apart in the source

Binder | IC50 (HXB2), pseudovirion entry (HIV-1 gp41 (HXB2 strain) [1]) [nM] | IC50 (JRFL), pseudovirion entry (HIV-1 gp41 (JRFL strain)) [nM] | further results
G[dA][dC][dD][dY][dP][dE][dW][dQ][dW][dL][dC][dA][dA]G[dK] (disulfide 3-12 (inferred); also: three peptides attached directly to central scaffold TSAT, site not given here) [PIE7-GK short claw] | 0.234 | 86.6 | –
[dK]G[dA][dC][dD][dY][dP][dE][dW][dQ][dW][dL][dC][dA][dA] (disulfide 4-13 (inferred); also: trimer, N-termini joined by PEG9 spacers) [N9N(PIE7)3] | 0.25 | 220 | –
Ac-[dH][dP][dC][dD][dY][dP][dE][dW][dQ][dW][dL][dC][dE][dL]G[dK]-NH2 (disulfide 3-12 (inferred)) [PIE12] | – | 578 | –
Ac-[dK]G[dA][dC][dD][dY][dP][dE][dW][dR][dW][dL][dC][dA][dA][dA]-NH2 (disulfide 4-13 (inferred); also: dimer: N-terminal Lys of both peptides joined by bis(NHS-ester)PEG crosslinker) [PEG-(PIE2-AAA)2] | – | – | IC50 (HXB2), single-cycle viral infectivity assay (HIV-1 gp41 (HXB2 strain) [2]): 21 nM; fold improvement of IC50 over the corresponding monomer (HIV-1 gp41 (HXB2 strain) [2]): ~70 fold
G[dA][dC][dD][dY][dP][dE][dW][dQ][dW][dL][dC][dA][dA]G[dK] (disulfide 3-12 (inferred); also: dimer joined C- to C-terminus by PEG5 spacer on C-terminal Lys) [C5C(PIE7-GK)2] | 0.355 | 203 | –
Ac-[dH][dP][dC][dD][dY][dP][dE][dW][dQ][dW][dL][dC][dR][dL]G[dK]-NH2 (disulfide 3-12 (inferred)) [PIE14] | 33.1 | 1050 | –
Ac-[dK]G[dA][dC][dD][dY][dP][dE][dW][dR][dW][dL][dC][dA][dA][dA]-NH2 (disulfide 4-13 (inferred)) [PIE2-AAA] | – | – | IC50 (HXB2), single-cycle viral infectivity assay (HIV-1 gp41 (HXB2 strain) [3]): 1440 nM
[dH][dP][dC][dD][dY][dP][dE][dW][dQ][dW][dL][dC][dK][dL]G[dK] (disulfide 3-12 (inferred); also: dimer crosslinked via internal Lys with PEG5 linker) [PEG5-(PIE13)2] | – | 15.1 | –
Ac-[dK]G[dA][dC][dD][dY][dP][dE][dW][dQ][dW][dL][dC][dA][dA]G[dK]-NH2 (disulfide 4-13 (inferred)) [K-PIE7-GK] | – | 14800 | –
Ac-[dH][dP][dC][dD][dY][dP][dE][dW][dQ][dW][dL][dC][dK][dL]G[dK]-NH2 (disulfide 3-12 (inferred)) [PIE13] | 41.3 | 1470 | –
Ac-[dK][dK]G[dA][dC][dD][dY][dP][dE][dW][dR][dW][dL][dC][dA][dA]-NH2 (disulfide 5-14 (inferred)) [2K-PIE2] | – | – | fold decrease in fold potency against PIE2, viral entry (HXB2) (HIV-1 gp41 (HXB2 strain) [2]): ~2 fold; IC50 (HXB2), single-cycle viral infectivity assay (HIV-1 gp41 (HXB2 strain) [3]): 2570 nM
G[dA][dC][dD][dY][dP][dE][dW][dQ][dW][dL][dC][dA][dA]G[dK] (disulfide 3-12 (inferred); also: three peptides attached to central scaffold LC-TSAT (six-atom spacer), site not given here) [PIE7-GK long claw] | 0.124 | 20.6 | –
Ac-[dH][dA][dC][dD][dY][dP][dE][dW][dQ][dW][dL][dC][dE][dL]G[dK]-NH2 (disulfide 3-12 (inferred)) [PIE15] | 66.7 | 1450 | –
[dK]G[dA][dC][dD][dY][dP][dE][dW][dQ][dW][dL][dC][dA][dA] (disulfide 4-13 (inferred); also: dimer joined N- to C-terminus by PEG9 spacer) [N9C(PIE7)2] | 0.329 | 313 | –
C0C(PIE7-GK)3 (disulfide I:3-I:12, II:3-II:12 (inferred); also: trimer: two chain 1 copies joined via C-terminal Lys by zero length spacers to the C-terminal Lys of central chain 2) peptide 1: G[dA][dC][dD][dY][dP][dE][dW][dQ][dW][dL][dC][dA][dA]G[dK] peptide 2: G[dA][dC][dD][dY][dP][dE][dW][dQ][dW][dL][dC][dA][dA]G[dK][dK] | 0.117 | 16.1 | –
Ac-[dK][dK]G[dA][dC][dE][dL][dL]G[dW][dE][dW][dA][dW][dL][dC][dA][dA]-NH2 (disulfide 5-16 (inferred)) [D10-p5] | – | – | IC50 (HXB2), single-cycle viral infectivity assay (HIV-1 gp41 (HXB2 strain) [3]): 9510 nM
Ac-G[dA][dC][dD][dY][dP][dE][dW][dQ][dW][dL][dC][dA][dA]G[dK][dK]-NH2 (disulfide 3-12 (inferred)) [PIE7-GKK] | 382 | 19100 | –
[dK]G[dA][dC][dD][dY][dP][dE][dW][dQ][dW][dL][dC][dA][dA] (disulfide 4-13 (inferred); also: dimer joined N- to C-terminus by PEG5 spacer) [N5C(PIE7)2] | 0.575 | 300 | –
[dK]G[dA][dC][dD][dY][dP][dE][dW][dQ][dW][dL][dC][dA][dA] (disulfide 4-13 (inferred); also: dimer joined N- to C-terminus by zero length spacer) [N0C(PIE7)2] | 0.534 | 402 | –
[dH][dP][dC][dD][dY][dP][dE][dW][dQ][dW][dL][dC][dE][dL]G[dK] (disulfide 3-12 (inferred); also: trimer, C-termini joined by PEG5 spacers) [C5C(PIE12)3] | – | 2.77 | –
Ac-[dK]G[dA][dC][dD][dY][dP][dE][dW][dR][dW][dL][dC][dA][dA]-NH2 (disulfide 4-13 (inferred)) [PIE2] | – | – | IC50 (HXB2), single-cycle viral infectivity assay (HIV-1 gp41 (HXB2 strain) [3]): 1320 nM
[dK]G[dA][dC][dD][dY][dP][dE][dW][dQ][dW][dL][dC][dA][dA] (disulfide 4-13 (inferred); also: dimer joined N- to N-terminus by PEG5 spacer) [N5N(PIE7)2] | 1.13 | 1410 | –
Ac-G[dA][dC][dD][dY][dP][dE][dW][dQ][dW][dL][dC][dA][dA]G[dK]-NH2 (disulfide 3-12 (inferred)) [PIE7-GK] | 389 | 15800 | –
[dH][dP][dC][dD][dY][dP][dE][dW][dQ][dW][dL][dC][dE][dL]G[dK] (disulfide 3-12 (inferred); also: dimer joined C- to C-terminus by PEG5 spacer) [C5C(PIE12)2] | – | 14.2 | –
[dK]G[dA][dC][dD][dY][dP][dE][dW][dQ][dW][dL][dC][dA][dA] (disulfide 4-13 (inferred); also: dimer joined N- to N-terminus by zero length spacer) [N0N(PIE7)2] | 0.801 | 1090 | –
G[dA][dC][dD][dY][dP][dE][dW][dQ][dW][dL][dC][dA][dA]G[dK] (disulfide 3-12 (inferred); also: dimer joined C- to C-terminus by PEG9 spacer on C-terminal Lys) [C9C(PIE7-GK)2] | 0.354 | 215 | –
Ac-G[dA][dC][dD][dY][dP][dE][dW][dQ][dW][dL][dC][dA][dA]G[dK]-NH2 (disulfide 3-12 (inferred); also: PEG4 attached at the C-terminus, order with amide not given here) [PIE7-GK-PEG4] | 351 | 13100 | –
Ac-[dK]G[dA][dC][dD][dY][dK][dE][dW][dQ][dW][dL][dC][dA][dA]-NH2 (disulfide 4-13 (inferred)) [PIE8] | – | – | IC50 (HXB2), single-cycle viral infectivity assay (HIV-1 gp41 (HXB2 strain) [3]): 1680 nM
